According to patent US20250270313A1 (SUNSHINE LAKE PHARMA, published 2025):
Positions count from the first letter of the chain named.

T1: hClaudin 18.2 peptide 18.2EL1-A (human)
T1 construct: also called peptide A; A peptide
T1 peptide: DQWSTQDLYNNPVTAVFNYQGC

T2: hClaudin 18.2 peptide 18.2EL1-E (human)
T2 construct: also called peptide E; E peptide
T2 peptide: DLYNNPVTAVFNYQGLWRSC

B1: m1B6-FC anti-Claudin 18.2 scFv-Fc fusion protein (Fc fusion)
scFv: DIVMTQSPSSLTVTAGEKVTMSCKSSQSLFNSGNQKNYLTWYQQKPGQPPKLLIYWASTRESGVPDRFTGSGSGTDFTLTISSVQAEDLAVYFCQNDYSYPLTFGAGTKLELRGGGGSGGGGSGGGGSEVQLQQSGPELVRPGASVKMSCKASGYTFTDYNMHWVKQSHGKSLEWIGYINPNNGGTSYNQKFKGKATLTVNKSSSTAYMELRSLTSEDSAVYYCVTTRYLAVWGTGTTVTVSS
notes: also called m1B6 (Fc fusion protein form); 1B6 scFv-Fc; not shown: detected wi
B2: m1E7 anti-Claudin 18.2 murine monoclonal antibody (antibody, mouse IgG2b, kappa)
heavy: QVQLQQPGSELVKPGASVKLSCKASGYTFTSYWMHWVKQRPGQGLEWIGMIHPNSGSTNYNEKFKSKATLTVDKSSSTAYMQLSSLTSEDSAVYYCARRYYGSISPDYWGQGTTLTVSSAKTTPPSVYPLAPGCGDTTGSSVTLGCLVKGYFPESVTVTWNSGSLSSSVHTFPALLQSGLYTMSSSVTVPSSTWPSQTVTCSVAHPASSTTVDKKLEPSGPISTINPCPPCKECHKCPAPNLEGGPSVFIFPPNIKDVLMISLTPKVTCVVVDVSEDDPDVQISWFVNNVEVHTAQTQTHREDYNSTIRVVSTLPIQHQDWMSGKEFKCKVNNKDLPSPIERTISKIKGLVRAPQVYILPPPAEQLSRKDVSLTCLVVGFNPGDISVEWTSNGHTEENYKDTAPVLDSDGSYFIYSKLNMKTSKWEKTDSFSCNVRHEGLKNYYLKKTISRSPGK
light: DIVMTQSPSSLSVTAGEKVTMSCKSSQSLLNSGNQKNYLTWYQQKPGQPPKLLIYWASTRESGVPDRFTGSGSGTDFTLTISSVQAEDLAVYYCQNDYSYPFTFGSGTKLEIKRADAAPTVSIFPPSSEQLTSGGASVVCFLNNFYPKDINVKWKIDGSERQNGVLNSWTDQDSKDSTYSMSSTLTLTKDEYERHNSYTCEATHKTSTSPIVKSFNRNEC
notes: Murine antibody with full heavy and light chains; also called 1E7 (hybridoma); m1E7 mAb
B3: m1B6 anti-Claudin 18.2 murine monoclonal antibody (antibody, mouse IgG2b, kappa)
heavy: EVQLQQSGPELVRPGASVKMSCKASGYTFTDYNMHWVKQSHGKSLEWIGYINPNNGGTSYNQKFKGKATLTVNKSSSTAYMELRSLTSEDSAVYYCVTTRYLAVWGTGTTVTVSSAKTTPPSVYPLAPGCGDTTGSSVTLGCLVKGYFPESVTVTWNSGSLSSSVHTFPALLQSGLYTMSSSVTVPSSTWPSQTVTCSVAHPASSTTVDKKLEPSGPISTINPCPPCKECHKCPAPNLEGGPSVFIFPPNIKDVLMISLTPKVTCVVVDVSEDDPDVQISWFVNNVEVHTAQTQTHREDYNSTIRVVSTLPIQHQDWMSGKEFKCKVNNKDLPSPIERTISKIKGLVRAPQVYILPPPAEQLSRKDVSLTCLVVGFNPGDISVEWTSNGHTEENYKDTAPVLDSDGSYFIYSKLNMKTSKWEKTDSFSCNVRHEGLKNYYLKKTISRSPGK
light: B2 light with S12T, L30F, Y93F, F102L, S106A, I112L, K113R
notes: Murine antibody with full heavy and light chains; also called 1B6 (hybridoma); m1B6 mAb
B4: m1E7-FC anti-Claudin 18.2 scFv-Fc fusion protein (Fc fusion)
scFv: DIVMTQSPSSLSVTAGEKVTMSCKSSQSLLNSGNQKNYLTWYQQKPGQPPKLLIYWASTRESGVPDRFTGSGSGTDFTLTISSVQAEDLAVYYCQNDYSYPFTFGSGTKLEIKGGGGSGGGGSGGGGSQVQLQQPGSELVKPGASVKLSCKASGYTFTSYWMHWVKQRPGQGLEWIGMIHPNSGSTNYNEKFKSKATLTVDKSSSTAYMQLSSLTSEDSAVYYCARRYYGSISPDYWGQGTTLTVSS
notes: also called m1E7 (Fc fusion protein form); 1E7 scFv-Fc; not shown: detected wi
B5: IMAB362 control antibody (antibody, V domains shown)
VH: QVQLQQPGAELVRPGASVKLSCKASGYTFTSYWINWVKQRPGQGLEWIGNIYPSDSYTNYNQKFKDKATLTVDKSSSTAYMQLSSPTSEDSAVYYCTRSWRGNSFDYWGQGTTLTVSS
VL: DIVMTQSPSSLTVTAGEKVTMSCKSSQSLLNSGNQKNYLTWYQQKPGQPPKLLIYWASTRESGVPDRFTGSGSGTDFTLTISSVQAEDLAVYYCQNDYSYPFTFGSGTKLEIKR
B6: chimeric antibody 1B6 (antibody, human IgG1, kappa)
heavy: not shown
light: DIVMTQSPSSLTVTAGEKVTMSCKSSQSLFNSGNQKNYLTWYQQKPGQPPKLLIYWASTRESGVPDRFTGSGSGTDFTLTISSVQAEDLAVYFCQNDYSYPLTFGAGTKLELRRTVAAPSVFIFPPSDEQLKSGTASVVCLLNNFYPREAKVQWKVDNALQSGNSQESVTEQDSKDSTYSLSSTLTLSKADYEKHKVYACEVTHQGLSSPVTKSFNRGEC
B7: chimeric antibody 1E7 (antibody, human IgG1, kappa)
heavy: not shown
light: B6 light with T12S, F30L, F93Y, L102F, A106S, L112I, R113K

Legend:
[1] = biological target: T3, human Claudin 18.2 (hClaudin18.2) (human, UniProt P56856-2 1-261); assay: flow cytometry on CHO cells overexpressing claudin18.2, scFv-Fc fusion protein
T3 construct: whole, on cells; also called CLDN18.2; hClaudin18.2-CHO
Procedure: CHO overexpressing claudin18.2 cells were prepared and centrifuged at 300 g for 5 minutes, then resuspended in PBS, and this step was repeated twice. Finally, the concentration was adjusted to 3E+06 cells/mL with PBS. […] CHO overexpressing claudin18.1 cells and CHO overexpressing claudin18.2 cells were laid out in two rows of transparent 96 round-bottomed wells, each with 100 μL, and then the antibodies were added to the cells in order and mixed evenly at 1:1. Each was set blank wells and negative wells. The mixture was put in a refrigerator at 4° C. and incubated for 1 hour. After the incubation, the mixture was centrifuged at 500 g for 3 min in a large-capacity benchtop high-speed centrifuge, then resuspended in PBS, and this step was repeated three times. The PE-labeled goat anti-human secondary antibody was diluted to a concentration of 1:500, and 100 μL was added to each well. The blank wells were left alone. The mixture was put in a refrigerator at 4° C. and incubated for 30 min. After the incubation, the mixture was centrifuged at 500 g for 3 min in a large-capacity tabletop high-speed centrifuge, then resuspended in PBS, and this step was repeated three times. Finally, 180 μL of PBS was added to each well and BDverse flow cytometer was used to test.

[2] = biological target: T1, hClaudin 18.2 peptide 18.2EL1-A; assay: peptide competition: antibody pre-incubated with peptide, then flow cytometry on CHO cells overexpressing claudin18.2
[3] = biological target: T3, human Claudin 18.2 (hClaudin18.2); assay: flow cytometry on CHO cells overexpressing claudin18.2, purified murine antibody
Procedure: CHO overexpressing claudin18.1 cells and CHO overexpressing claudin18.2 cells were prepared, centrifuged at 300 g for 5 minutes, then resuspended in PBS, and this step was repeated twice. Finally, the concentration was adjusted to 3E+06 cells/mL with PBS. […] CHO overexpressing claudin18.1 cells and CHO overexpressing claudin18.2 cells were laid out in two rows of transparent 96 round-bottomed wells, each with 100 μL, and then the antibodies were added to the cells in order and mixed evenly at 1:1. Each was set blank wells and negative wells. The mixture was put in a refrigerator at 4° C. and incubated for 1 hour. After the incubation, the mixture was centrifuged at 500 g for 3 min in a large-capacity benchtop high-speed centrifuge, then resuspended in PBS, and this step was repeated three times. The PE-labeled goat anti-mouse secondary antibody was diluted to a concentration of 1:500, and 100 μL was added to each well. The blank wells were left alone. The mixture was put in a refrigerator at 4° C. and incubated for 30 min. After the incubation, the mixture was centrifuged at 500 g for 3 min in a large-capacity tabletop high-speed centrifuge, then resuspended in PBS, and this step was repeated three times. Finally, 180 μL of PBS was added to each well and BDverse flow cytometer was used to test.

[4] = biological target: T2, hClaudin 18.2 peptide 18.2EL1-E; assay: peptide competition: antibody pre-incubated with peptide, then flow cytometry on CHO cells overexpressing claudin18.2
[5] = biological target: T3, human Claudin 18.2 (hClaudin18.2); assay: cell-based or functional assay

Binder | ADCC reporter (Jurkat-NFAT-Luc-CD16 luciferase), half-peak concentration EC50, target cell BXPC-3-Claudin 18.2 [5] [ng/mL] | ADCC reporter (Jurkat-NFAT-Luc-CD16 luciferase), half-peak concentration EC50, target cell Capan-1-Claudin 18.2 [5] [ng/mL] | ADCC reporter (Jurkat-NFAT-Luc-CD16 luciferase), half-peak concentration EC50, target cell SK-GT-Claudin 18.2 [5] [ng/mL] | CDC activity (CCK8 cell viability, OD450), half inhibitory concentration IC50, target cell KATOIII-3-Claudin 18.2 [5] [ng/mL] | other results
B1 |  |  |  |  | EC50 [1]: ~500 ng/mL
B2 |  |  |  |  | binding result [2]: binds; EC50 [3]: ~100 ng/mL
B3 |  |  |  |  | binding result [2]: binds; binding result [4]: binds; EC50 [3]: ~60 ng/mL
B4 |  |  |  |  | EC50 [1]: ~2600 ng/mL
B5 | 3.45 | 3.48 | 9.06 | 4890 | 
B6 | 2.11 | 2.68 | 4.47 | 2660 | 
B7 | 2.7 | 2.63 | 7.07 | 1570 | 
